Experimental data as given in PMC11587651, “Increased cytoplasmic expression of PETase enzymes in E. coli” (Microbial Cell Factories, 2024).
Where a chain is given by its changes, count along the chain named. Names may count otherwise.

Substrate: CC(=O)Oc1ccc([N+](=O)[O-])cc1
Test: purified protein
Assay type: biochemical, Pseudideonella sakaiensis
Conditions: 100 mM potassium phosphate pH 7, 25 °C, 1-20 mM 4-NPA, acetonitrile from substrate stock

B1: IsPETase (Pseudideonella sakaiensis) (protein)
chain: AQTNPYARGPNPTAASLEASAGPFTVRSFTVSRPSGYGAGTVYYPTNAGGTVGAIAIVPGYTARQSSIKWWGPRLASHGFVVITIDTNSTLDQPSSRSSQQMAALRQVASLNGTSSSPIYGKVDTARMGVMGWSMGGGGSLISAANNPSLKAAAPQAPWDSSTNFSSVTVPTLIFACENDSIAPVNSSALPIYDSMSRNAKQFLEINGGSHSCANSGNSNQALIGKKGVAWMKRFMDNDTRYSTFACENPNSTRVSDFRTANCS
notes: expressed in E. coli SHuffle T7 Express; IMAC purified; monomeric by SEC
For B1, the Km was 8.16 ± 0.66 mM and the kcat was 30.3 ± 1.1 s⁻¹.

B2: IsPETase (Pseudideonella sakaiensis; D186H/N233K/R224Q/R280A/S121E) (protein)
chain: B1 chain with S95E, D160H, R198Q, N207K, R254A
notes: as for B1
B2 was tested, and the Km (FAST-PETase) was 11.33 ± 1.11 mM and the kcat (FAST-PETase) was 45.7 ± 2.3 s⁻¹.

B3: IsPETase (Pseudideonella sakaiensis; D186H/K252M/K95N/M154G/N212K/N233C/N241C/P181V/Q119K/Q182M/R224L/R280A/R90T/S121E/S207R/S213E/S214Y/S282C/S58A/S61V/T270Q) (protein)
chain: AQTNPYARGPNPTAASLEASAGPFTVRSFTVARPVGYGAGTVYYPTNAGGTVGAIAIVPGYTATQSSINWWGPRLASHGFVVITIDTNSTLDKPESRSSQQMAALRQVASLNGTSSSPIYGKVDTARGGVMGWSMGGGGSLISAANNPSLKAAAVMAPWHSSTNFSSVTVPTLIFACENDRIAPVKEYALPIYDSMSLNAKQFLEICGGSHSCACSGNSNQALIGMKGVAWMKRFMDNDTRYSQFACENPNSTAVCDFRTANCS
notes: as for B1
For B3, the Km (Hot-PETase) was 9.61 ± 0.91 mM and the kcat (Hot-PETase) was 33.0 ± 1.5 s⁻¹.
